# Test: soluble on expression in E. coli; label from the status in PepcDB or PDB records
row,Sequence,soluble on expression in E. coli
1,MSRGTQACINAAHTVSGIIGDLDTTIMFATAGTLHSDGDGSFADHREHILQTAKALVEDTKVLVTGAAGTQDQLANAAQNAVSTITQLAEAVKRGACSLGSTQPDSQVMVINAVKDVASALGDLINCTKLASGKSINDPSMQDLKESARVMVLNVSSLLKTVKAVEDEHTRGTRAMEATVEAISQEIRALEHHHHHHHH,soluble
2,MSRLSEPSPYVEFDRRQWRALRMSTPLALTEEELVGLRGLGEQIDLLEVEEVYLPLARLIHLQVAARQRLFAATAEFLGEPQQNPDRPVPFIIGVAGSVAVGKSTTARVLQALLARWDHHPRVDLVTTDGFLYPNAELQRRNLMHRKGFPESYNRRALMRFVTSVKSGSDYACAPVYSHLHYDIIPGAEQVVRHPDILILEGLNVLQTGPTLMVSDLFDFSLYVDARIEDIEQWYVSRFLAMRTTAFADPESHFHHYAAFSDSQAVVAAREIWRTINRPNLVENILPTRPRATLVLRKDADHSINRLRLRKL,soluble
3,MSRPLSIALISETYPPEVNGVANTLGRLHAGLQQLGHRVQVVRPRQPGDDGRRSDAELVLTRGWPLPGYPGLQWGMSSLHKLLRCWKRQRPDVLYIATEGPLGFSALRAARRLGIPAVSGFHTNFQQYSEHYGFGPLTRLVTGYLRWFHNRTQMTLVPSGSQRMELQRRGFERLNLLSRGVDSQLFHPSRRDPELRRRWGLGEQDIAVLHVGRLAAEKNLGLLGGTFRALCAAHPQLKLRLVLVGDGPERKHLERDLPEALFCGVQRGETLAAHYASGDLFLFPSLSETFGNVVLEAQAAGLAVVAFDQAAAGQHIRHGHNGVLAAPGDKSGFVEVASWLLDDQERLRRVRLNARQHASRQGWDSIVEHFQNYLEDACASPLVQPARSKPERPPAEDGGALPRSRELEHHHHHH,not soluble
4,MSRPRKRLAGTSGSDKGLSGKRTKTENSGEALAKVEDSNPQKTSATKNCLKNLSSHWLMKSEPESRLEKGVDVKFSIEDLKAQPKQTTCWDGVRNYQARNFLRAMKLGEEAFFYHSNCKEPGIAGLMKIVKEAYPDHTQFEKNNPHYDPSSKEDNPKWSMVDVQFVRMMKRFIPLAELKSYHQAHKATGGPLKNMVLFTRQRLSIQPLTQEEFDFVLSLEEKEPS,soluble
5,MSRSPDAKEDPVECPLCMEPLEIDDINFFPCTCGYQICRFCWHRIRTDENGLCPACRKPYPEDPAVYKPLSQEELQRI,soluble
6,MSRTAKPQNGRRRFLRDVVRTAGGLAAVGVALGLQQQTARASGVRLRPPGALNENVFASACVRCGQCVQACPYDTLKLATLASGLSAGTPYFVARDIPCEMCEDIPCAKVCPSGALNKDIASIDDSRMGLAVLLDQENCLNFQGLRCDVCYRECPKIDEAITLELDRNMRTGKHARFLPTVHSDACTGCGKCEKVCVLEQPAIKVLPLSLAKGELGHHYRFGWLEGKDGKS,not soluble
7,MSRTMAEVNRLLKKTAGLINKDTESPFQGEFRVGVDLGTADIQTIVLDADGNPLAGFMDWANVVRDGVVVDFFGASQIVREQVRRASAKLGIQIEQVTTSFPPGTDSRISTNVIEAAGLEVAGVIDEPSSVAQLLQLDHAAVVDIGGGTTGTAIIEEGRVVRSMDDATGGRHITLTLAGHFGLPYEEAEEMKRTSKDLALCRLAAPVIAKMADIVHGHIAGHKVPAIYLTGGSCALPGFLEVFAAEFPGIEIVMPSHPLYLTPLAIATYSDVLQTREQRVGLEHHHHHH,not soluble
8,MSSAGEANCAMIGGSLSAARQLDGSVIGMCALPNGKRCSEQSLAAGSCGSY,not soluble
9,MSSALTDLFPLPIVQAPMAGGVSVPQLAAAVCEAGGLGFLAAGYKTADGMYQEIKRLRGLTGRPFGVNVFMPQPELAESGAVEVYAHQLAGEAAWYETELGDPDGGRDDGYDAKLAVLLDDPVPVVSFHFGVPDREVIARLRRAGTLTLVTATTPEEARAVEAAGADAVIAQGVEAGGHQGTHRDSSEDDGAGIGLLSLLAQVREAVDIPVVAAGGIMRGGQIAAVLAAGADAAQLGTAFLATDESGAPGPHKRALTDPLFARTRLTRAFTGRPARSLVNRFLREHGPYAPAAYPDVHHLTSPLRKAAAKAGDAQGMALWAGQGHRMARELPAGRLVEVLAAELAEARTALSDASRENESRKGHHHHHH,soluble
10,MSSAPNDDCEIDKGTPSTASLFTTLMLSQPSSSTAVLQCTYCGSSCTSSQLQTCLFCGTVAYCSKEHQQLDWLTHKMICKSLQTSGMVPSNLMPQAAPAVMAPIPPTVSFDDPALTTSLLLSLQNNPILNQTISNFPPTFSITSKTEPEPSIPIQIPQRISSTSTVPFSSEGSAFKPYRNTHVFNSISSESMSSMCTSHEASLEHMSSASLAMFPTSSTAQSDISRLAQVLSLAGDSPASLALVTTSVPSTASTATIPPPATTTSSATSSGKSETITVGKEKIIQTDDPDIQIIETEGGSKPTVSRTRKRPTPSNSADPKINYKDHNKNVVYSTTLQEHQKHLQNRGLALSIHQAMVLRLRYIAEHVIRSLNEFGWAVVDNFLGSDHYKFTAKEIERLYERGLFSPGQLMEAKHKDEFHIKDIRSDHIYWYDGYDGRAKDAATVRLLISMIDSVIQHFKKRIDHDIGGRSRAMLAIYPGNGTRYVKHVDNPVKDGRCITTIYYCNENWDMATDGGTLRLYPETSMTPMDIDPRADRLVFFWSDRRNPHEVMPVFRHRFAITIWYMDKSERDKALAKGKESDAACASKKENDPTSSSLNSLIGSLLRPRKNPSTHDLSKLDLRLFPSTSSDPALVSAADEDRVDISADFQSTSSLAHPESTDSGVSLSTFNVAHNHMERTTSLQSISDHFRSERSHERRSSTSSDQDLDEGLPPPPSTNPEYYI,not soluble
11,MSSARRCLFGRPTPEQRSRTRIWLEDAVKRMRQEESQKWGFDFELETPLPSSAGFVYEVIPENCVPEFYRTKVLTVRTTCSSLDISSTTLTPLSSPSTSDKEEPSLMDPNSSFEDEEEPKKWQFREPPTPRKTPTKRQQKMTDFMAVSRKKNSLSPNKLSPVNVIFTPKSRRPTIRTRSSCSPY,not soluble
12,MSSATTNSKIIHATRQHVYEALTQKEALEFWLAPDQMTGKIHDFDLSVGGGYTMSLFYTDNSIKGKTSGNEDRYTSTFIELQPYEKVVHSITFQSEKKEFEEAMIMEVFLEEKGKDVTNVTIFFKNIPAGITPEDNEAGTKESLDKLARYLENNNRSASEKKLEHHHHHH,soluble
13,MSSDDEIYNENNDLDEEFSDDMDQQSGSSGESQGKANYEILDPTALESDMSKTISEVQAILQVEPGICRILLHKFKWNKDRLLDKFYEHSDTTEFLAEAQVIPKTSSSEEAAGSSAPPPGGDAECDVCCSMTRLSGLACAHRACDECWKAYLTEKIVDVGQSEIECMMMDCKLLIEDEKVMSYITDPFVIAAYRKLIISSYVETNSQLKWCPGAGCGKAVKGEPSDREPAVCTCGERFCFACAQDWHDPLSCRHMKMWRKKCSDDSETLNWINANTKPCPKCSVTIEKNGGCNHMSCKSSSCRYEFCWLCLGDWKNHAQCNRYVEDDNKTDSRSLSRKNLQRYLFYYNRFMAHQNSMKLEGKLYAKVEVKMDLMQALSMSWIEVQFLRRAVDALCECRRTLKYAYAFAYYLEANNMTTLFETNQSDLELATEQLSGMLEGDLEDNDLAELKRKVQDKYRYVELRRKKMLDHCAEGVELDSWVFCE,not soluble
14,MSSDNEIEDLKRAFIFALRKKFPRDSSSSIAIATVNLIRKIIFRENPKTMNDLQVSLANHCKKLHGAERSELIIINIGLMITKLARDEVLQKKGGGEPEPLYTLWRDDDETIKKLKTADMKKIKKDLQASIKELVTEIESSRECIASQSTELLFNNDVVLVHSLRSSQTMHNFLSHAVKSGRKHRVIDVVDEEEHIESTPDFATAIELYEVASKMPEASKVVLVAAAYFPDGSCLVPAGGHQIALLAKRHCVPVYVLAPFYKLCPFFMTNPDSLHTFRSNSLPFDLSAKSAGLVDCLHPAFDCLQSDLVTLFVSNTSCVIPSHVNRLKEDYYHSQDIADY,not soluble
15,MSSDPWGRVDETGTVYVRTADGEQVVGSWQAGSPDEALAYFERKYEGLVVEIGLLEKRVKTTDLSAKDAQTAIDHIREQVDAHHAVGDLDVLRKRLDKLVETVAARREERKAQRAKQSDEARHAKESLVVEAEELAQSDQWRAAGERLRSLVDTWKGLPRLDRKSDDELWHRFSHARSAFSKRRKAHFASLDAQREDARKAKEKLVAEAEALSGSTDWGPTAARYRELMGDWKAAGRAQREHEDDLWNRFRGAQDVFFAARSSVFAERDAEQSENLKLKEELAEEAEKLLPISDLKAARAAFRSLNERWEAIGHVPRDARPKVEGRMHAVERALQESEEVEWRRTNPEARARAEGLTGQLQAAVDKLQGQIEAARSAGNNAKADKLQKELDGRQALLDQALKGLHEFGG,not soluble
16,MSSIDIVIPNYNYGRFLKGCVESVLGQNIADMRILIIDNASTDDSVAISRSLAAANPRIETSLRARNLGGHASFNAGIDWARADYFAIICADDVLSPGALARAMEALDNNPGAHMAFGRTAFFRDDAEIASGLHSDADGMRLHRGMDFIANICATGRSPVQGPLAVTRTHIQQHAGHYRPALRHTDDVEMWMRLAVLGDIVELDAVQNFTRIHGANQSAILDNVLAWNAEIEAALESFFGNEGALLADAKTLLRRGRASLSDRAYWCALSNLVRRRPGAGALLAQAFRLRPASALLPPISYLMRRPDALHRIRAAIARRLEHHHHHH,not soluble
17,MSSKHEILNALKLSALTNHPMPSIDVAPRVEDLVGQFETNLKTVAGTLHREGGLAALQAKVDELIAQGLQVISLVEGVTANRDVPPTAHELRDIDYAVIPGDVGVAENGAIWVNNKNLGHRVTPFICENLILALPIHKIVPNMHQAAKEVTLDAGEFGVFIAGPSKTADIEQALVVGAHGACSLNVYLV,soluble
18,MSSNENSDDVPEQRQIVRRSRVYNPRDPSSPEPPYDPYPPGIHAQAGCATRPISAHIVPQALIEPIRLHREEDELAGTSSCRPVPQCDFNLESDRWEEDQLENPQIKSQWKGSETRPVANFARRQQRVLRTDWKHVDVQITVWEELKKVLEAAEIVDVTLNMMKTLNPDTKAMWLLKFHTTSLTEYLEDFESRAEYFNEMLLELDGIHPDLFTECSNYISQLKDVTHSRELQAVQVHLPKAVKNSDAQKVRFYLQLAGEAKKDIAVVLNNNKVKTLLIDNGFTL,not soluble
19,MSSPSGSSRTFPQYQSGSGWNAMLPKRTPRTAAPARRHFKSLVIGAGYTGLAAARRLAELQPQDQVLVVDATVAGEGSAGRNSGFLINLPHNTRMSGHHSPLEVARKQIAMLQSGLDWLAQLSGQGGFDCGWDLAGKYHAAATADGEQSLRGALQQYGQWGVAYSELDRDALQAQLGTRYYRFGYHSMNNVFVQPAALIRGLADSLPENVWLTEDNPVLSIDGSGPYKVRTRGGEFTADNVILANNAFARRLGFLRSRLVTIFTYAGVTPVLSPAQQALLGERDQWGVIPANRLGTTLRRISGGRFMVRSAYSYEAEQPLERMEQLLRDSFVRRYPDLAAHDFEYVWSGSTGLTGNGASFVGAIQPGLYASVGCNGAGVIKGTIYGKLLGEQVAGHRSAMLDDLASFEKPNWLPPEPLRRIGALSTIAYQARKAGLEKLEHHHHHH,soluble
20,MSSQPNQSLIDGIRCLQYLVSSDRAIGCRELARLMDINTTRVNRLLMTMASIGLTMQDEHRRYLPGPGIHALAAQAIRGSALFSHALPILERHAPKDIVVALGVLWEDQIIYIYHSTPGSQGSQALAGFRMYPAWQSVPGVALLAAESDEALMQRFTPEQWRNLAPHVAQQRQRGYVLWHHADGEVSMAQPLGKHAAALAFAGMWRIDEAEAAARLQALKALNQLIAQ,not soluble
21,MSSQSNTGNSIEAPQLPIPGQTNGSANVTVDGAGVNVGIQNGSQGQKTGMDLYFDQALNYMGEHPVITGFGAFLTLYFTAGAYKSISKGLNGGKSTTAFLKGGFDPKMNSKEALQILNLTENTLTKKKLKEVHRKIMLANHPDKGGSPFLATKINEAKDFLEKRGISK,soluble

# Reference: the DeepSol protein solubility set
